Reference: patent US20140105855A1

Target: preformed IL-17RA-IL-17A complex (IL-17A captured by immobilised IL-17RA) (human) (UniProt Q16552)
Experiment: SPR, second receptor injected over IL-17A captured on immobilised IL-17RA

Chain of preformed IL-17RA-IL-17A complex (IL-17A captured by immobilised IL-17RA) (human) (Q16552 other isoform, or with tags, fused parts or gaps): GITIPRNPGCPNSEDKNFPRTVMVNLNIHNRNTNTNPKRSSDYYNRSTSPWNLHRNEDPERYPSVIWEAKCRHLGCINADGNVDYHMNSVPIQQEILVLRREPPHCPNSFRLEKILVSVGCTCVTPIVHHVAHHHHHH

Kd: 3.1 µM
Substance: IL-17RA extracellular domain (ECD) (receptor)
